Measurements taken from patent publication US20140010797, “Fusion Molecules of Rationally-Designed DNA-Binding Proteins and Effector Domains” (DUKE UNIVERSITY, published 2014).

Biological target: T1, CCR2REP (Artificial Sequence, UniProt P05725 SEQ:11-173)
T1 chain: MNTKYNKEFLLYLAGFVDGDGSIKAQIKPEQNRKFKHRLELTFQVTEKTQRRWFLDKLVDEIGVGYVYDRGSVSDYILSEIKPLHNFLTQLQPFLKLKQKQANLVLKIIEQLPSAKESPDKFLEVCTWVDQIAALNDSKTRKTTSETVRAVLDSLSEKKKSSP
Experiment: cell_activity; LacZ reporter with truncated CMV promoter, HEK 293
Settings: tags: N-terminal SV40 NLS, C-terminal Kid-1 KRAB; chain copies: 2
Source text: An E. coli beta-galactosidase (LacZ) gene was inserted into the mammalian expression vector pCI (Promega) between PstI and NotI. In this plasmid, LacZ expression is driven by a truncated CMV promoter (corresponding to the 3′ 442 bp of the canonical CMV promoter, SEQ ID NO: 47). A CCR2 recognition sequence (SEQ ID NO: 45) was then inserted at the 5′ end of this promoter (see FIG. 6A).
HEK 293 cells (1×10⁵) were transfected first with either the pCI empty vector or pCI carrying the CCR2REP gene under the control of a constitutive CMV promoter using Lipofectamine 2000 according to the manufacturer's instructions (Invitrogen). 6 hours post-transfection, transfection complexes were removed and replaced with fresh media. 24 hours post-transfection, the cells were re-transfected with the LacZ reporter plasmid using Lipofectamine 2000. As a measure of transfection efficiency, additional cells were transfected at both time points with pCI eGFP. […]
Lysates from transfected cells were subjected to a standard o-nitrophenyl-β-D-galactoside (ONPG) assay (Current Protocols in Molecular Biology. ed. V. B. Chanda. Vol. 2. 2004, John Wiley & Sons, Inc). […] The reaction was stopped with 500 μL 1M Na₂CO₃ after one hour, and the absorbance at 420 nm was measured using a NanoDrop ND-1000 spectrophotometer. β-galactosidase activity was determined using standard equations.

B1: CCR2 palindrome (dsDNA)
DNA 1: AGGCATCTCGTACGAGATGCCT
DNA 2: AGGCATCTCGTACGAGATGCCT
  activity: ~2.6 fold repression
